From the DeepSol protein solubility set

Test: soluble on expression in E. coli; label from the status in PepcDB or PDB records

Sequence	soluble on expression in E. coli
HVKLEQLGIPRQVLKYDDFLKSTQKSPATAPKPMPPRPPLPNQQFGVSLQHLQEKNPEQEPIPIVLRETVAYLQAHALTTEGIFRRSANTQVVREVQQKYNMGLPVDFDQYNELHLPAVILKTFLRELPEPLLTFDLYPHVVGFLNIDESQRVPATLQVLQTLPEENYQVLRFLTAFLVQISAHSDQNKMTNTNLAVVFGPNLLWAKDAAITLKAINPINTFTKFLLDHQGELFPSPDPSGL	soluble
IDFRTNKSKDAVIVVELASPAAIVDVKRVQEGLSIDLMNTSVKDEQLYLLDVKDFATVVESVEVFRDTSTTRLVAYIDEEYTHDYRLTGRYLEITVSKLKPNEKV	not soluble
IDGDSITNKQIKKFWRQKQIIEEDHLYSAIKAAARVRARNLSDEDYKRFEESLDMEDLETEDHQGLKDWWTKSKYAYLNQPALGSADSLKRKRFSTYTPNCFSFKPCNPLYATSLNVF	not soluble
IDKAIRDGNVLGFRTEYYKTLSEKDDIDDETSSTGIDKKEALENPIRISEIVDFILKNYNRLTKRNEEFFEHNKIANINEVITSRNKLSENKVLTTLNGFNSILACSSINAAKIYYSEFKKQQQKFPQEEKLKIGLIYSYLPSEQ	not soluble
IFNVPFGLNINLLPQYHMYTTQEAKDKIYYYSGNKVGFDIGASAQIGYMWQVTDNFGISLLGELGYSFDSFNANFDTAKVENPNDITGQIDAPEGTQKLGSASFYTHNLKIGILPKFNIKAFSIGIGLGIIVPMAITQNWKDEAAKTLFKDASTKFMSSVGFYGKLTFDYSIFFTEKIAMNIGLYTGVDAIGSINTTINNTSLNQGAHSEAPLLSYDIGLQLGFRFGPKAFN	not soluble
IGVFLKDKQKVLVVEESEPFIEEQIRIEGNVYGKKTGHLPYGQVTSKDIDFALEHIEEEKVSRPADPGLIESRKKSRASICEDCPYLPLYNFLRISGVRVAGDMGCSVRSAPEPLSAVDVSFALGSAISVACGFERKGIAVIGDFALAHSGILGLLNAVSEGHEVLVLVLQNEVAAMTGGQKVPDLRKVIEAIVPDVSVFDMDGRKEKEQASGSELSDLITEKLALPGISVIFI	not soluble
IKLNTLNTMSMGVTMRYMSEKYFKMMCGVQMEINYSQRGWDEKIEDDSGNSYSRTMNYLEIPFMAHLAFGKDALNRGVKVFFNAGPQIGFFLGDNEKINWTTSTTRPEHGKEVENKFDYGITAGAGLEVSTGIGHFLLEGRYYMGLSDFYKNSKRDFFERSAHSFIGIRLSYLI	not soluble
ILDTKPIPTIVDATTLGISGNTSGDYWLPTTMSLYQKELTDQIVSLHYSDILRYFETSHYKEDVILESMKTMCLNGSLVATHPYLLIDHYMPKSLITRDVPAHLAENSGKFSVLRDLINLVQEYETETAIVCRPGRTMDLLEALLLGNKVHIKRYDGHSIKSAAAANDFSCTVHLFSSEGINFTKYPIKSKARFDMLICLDTTVDTSQKDIQYLLQYKRERKGLERYAPIVRLVAINSIDHCRLFFGKKFDKNSREYLENVTAAMVILRDRLGTLPPDLRPIYSQKLHYLVEWLENPTVPWPLPDIYPLKQYTSMDVERSLLTEVHFK	soluble
ILGIKTLLAVYRLFGRKAFDLILKLVMRYYHFTGKSAREASEIYLQNLQRYAAQQNIALPKQLDSYHHLLSFGRTMLDKLAAWQGDFNVDNLTIHGQHHFEEMAQKKQGVLILGSHLGNIELCRALGRRHSHVKINALVFTQHAEQFNAVMKAVNPNSELNLIQVSSMGPDTAILLQQKIEQGEWVVIVGDRTSTSKENRVVWADFLGKPAPFPQGPFMLASVLKAPVYLLFGLRDDEANTPHFNVYFEHFSDQITLPRKERQQALEHVVQQYAHRLEHHTLQAPLQWYNFFNFWTLSNQPHDKQQ	not soluble
ILTENTPYFEQLSVPQRSVGRIIGRGGETIRSICKASGAKITCDKESEGTLLLSRLIKISGTQKEVAAAKHLILEKVSEDEELRKRIAHSA	soluble
INDWSYSIGANFSYVTTKIMDLKGGDTPGQSVGDPLWAYYGYVCDGIFQNEEEIKNHPTQSMGTPVPGDLKYRDLNGDKVVDSKDRQVLGSYFPKINFGLNLSVQYKDFDLSALLQGAADVKSAPVAEIRYAFYNGGKVTEQHLDRWTPENPNATYPRLSMSDSKNRVTSSFWMQDASYAKLRNLQVGYSLPKQLISKYGISRLRVYCSIDNLFMISGFDGVDPEAISGNYYPLTRNYSFGLNVTF	not soluble
IPAGELQIIDKIDAAFKVAATAAATAPADDKFTVFEAAFNKAIKETTGGAYDTYKCIPSLEAAVKQAYAATVAAAPQVKYAVFEAALTKAITAMSEVQKVSQ	soluble
IPGPGFTAGAQGSCSLRCGAQDGLCSCHPTCSGLGTCCEDFLDYCLEILPSSGSMMGGKDFVVQHLKWTDP	soluble
IQFTESCSMDQSAKEPLINYLDMEYFGTISIGSPPQNFTVIFDTGSSNLWVPSVYCTSPACKTHSRFQPSQSSTYSQPGQSFSIQYGTGSLSGIIGADQVSVEGLTVVGQQFGESVTEPGQTFVDAEFDGILGLGYPSLAVGGVTPVFDNMMAQNLVDLPMFSVYMSSNPEGGAGSELIFGGYDHSHFSGSLNWVPVTKQAYWQIALDNIQVGGTVMFCSEGCQAIVDTGTSLITGPSDKIKQLQNAIGAAPVDGEYAVECANLNVMPDVTFTINGVPYTLSPTAYTLLDFVDGMQFCSSGFQGLDIHPPAGPLWILGDVFIRQFYSVFDRGNNRVGLAPAVPWSHPQFEK	soluble
ISEFDYSARFVLSDGKRKILRYPNPTNSLSSDVYYNGQILGDIWGYKTVGIAQTQEEMNAHLANGGTPNWGTNWGAGDVMYANLDGKEGVNNGSNTLEDHGDLTIIGNNTPRYNFGLTLTGAWKGFDFSVFLQGVMKRDYWLDGPYFWGANGGLWQSTAFKEHMDYWRPEGDPLGANTNAYYPKPYFNTDKNQKVQSGYLQNAAYCRLKNAQIGYTLPKTWTRKAAMESVRVYVSGDNLVTFSGISGVFDPELLGSDWGDGKLYPLQRTISIGLNVNF	not soluble
ISISRADLAFDLFEVDCSEFVLEKKGRPTATKEFRSSTGTLETKYLGAPRSEKQVRLYNKKKEQLQNGTDKDKDFASQFKHWWRLEFQLRSRSIDEIFEVIDTIIFKPFNLKGLSIETQIYLTALIHDKNIWKKLHRNTRARYKKILETHQTSDTDYLGLLKDLLKHERPRLENQLAYYGGRIDKNSFQPFC	not soluble
ITDHNTLSGVSKMVEACKINKRFLNNKCPQILAGIEISCSDKHHVVVILNNKDMDMMQKAEDWLTNYIISDDGTYLPSLLVIEAFVEIGAIAYIAHFNTSDLFKKPKFLSGLYIDKLFSTKKMEIIGLSNMDSKLAIEEKLSNYTKRKFHFILDEDSHTLEELCTKPFWIK	not soluble
KELKIILLTDMHVGSLLQKDFVDYIVEEVNQKEVDMVLIGGDLVDESIEKVKSFLLPLNNLKSTHGTFYVPGNHEYYHGIEPILSFLDTLNLTILGNECVHLGGINLCGVYDYFARKRQNFAPDIDKALKKRNESKPTILLAHQPKQIRSLKESHSVDLVLSGHTHAGQIFPFSLLVKLAQTYLHGLYKHSP	not soluble
KELWKLRKLRNHFSIQEEAELLVHSDSVGKGKVFCEKVAEESGVLAENPGFDRWQNSINPAHSDAEILDMYDSMVVSQQDKLATKVVSQHATES	not soluble
KFLHEISLVLQTSVDLDEVLSVVMTAITAGKGFGMNRAFLLLTDKERKHLRGYLGVGPRNYGEAWFIWDEISRDDFTLKEMAKNFYQTKFTSEKQKFHDILENLTIPLSEHDHILVRALREKKPLLVENAFHNPDCDYSLTQTLGVDTFLITPLVSRNRRIGVIISDNCVTHKPITPQDVQSLETFAFPVAFAIERASLYERLQEE	not soluble
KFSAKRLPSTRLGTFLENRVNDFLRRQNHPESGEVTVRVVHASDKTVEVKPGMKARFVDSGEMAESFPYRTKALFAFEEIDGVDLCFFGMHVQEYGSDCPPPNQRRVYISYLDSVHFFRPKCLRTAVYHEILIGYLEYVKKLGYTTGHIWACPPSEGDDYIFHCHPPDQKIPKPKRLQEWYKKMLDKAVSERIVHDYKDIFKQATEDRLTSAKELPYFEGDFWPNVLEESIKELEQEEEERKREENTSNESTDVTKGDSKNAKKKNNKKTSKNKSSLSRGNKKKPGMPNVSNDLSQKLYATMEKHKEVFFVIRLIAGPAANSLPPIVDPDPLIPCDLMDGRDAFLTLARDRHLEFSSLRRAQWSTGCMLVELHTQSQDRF	soluble
KGEITYLNQAWASITGFSISECMGTMYNDYFIKEKHVADHINTQIQNKASSGMFTAKYVTKNGTIFWGEVHYKLYYDRDDQFTGSLGTMSD	not soluble
KKDDFRNEFDHLLIEQANHAIEKGEHQLLYLQHQLDELNENKSKELQEKIIRELDVVCAMIEGAQGALERELKRTDLNILERFNYEEAQTLSKILLKDLKETEQKVKDIQTQ	soluble
KKTFLTVRGNLTFNKDKIIENDEPPVDYPWMETRGTNVNATWGFIADGLFTSQAEIEDHATQFGTVHVGDIKYRDLNGDGVIDNYDKTVIGRGDVPRIYYGFGADLQIGDFSISALFQGTGQADRYLDGICIKPFWDDEGRDNVFANIHDRWSPDDPTNQDVFYPRMYVGSDANTNNVQKSSWWVKDVSFLRLKQLNISYNIPKKLLDRCFLKSASVYLMGTNLLTFSNFKLWDPELNTSNGTAYPNVSSYSVGVKFSF	not soluble
KKTVRRILGVVEIGGSGENITKTELFKYDGISDSVVKTGICMWEEDVCQIAGITRDELMDDRINRKKVLKYMVNNNINDIRKVGDVLKQYQENPENVLKNIL	not soluble
KLSPMIDLWDTLQSLLHVQELHVVAAHGEVKELLVRMSLNEATIPPEKVPIHAINLLLEDTVIPFIFTMEEERSISIPYTDSIDKYVYEPHTALLKAGAFKTVAYRLGLRKLHPNSHLYTSEAYESAFPGRTFVLEEIIPFSTSVLKQLRKVVPQASISCRNFPLSPIELRQRSKMADGGEKTLMGTTMADGKKVLLLLRKAE	not soluble
KNFNPPTRRNWESNYFGMPLQDLVTAEKPIPLFVEKCVEFIEDTGLCTEGLYRVSGNKTDQDNIQKQFDQDHNINLVSMEVTVNAVAGALKAFFADLPDPLIPYSLHPELLEAAKIPDKTERLHALKEIVKKFHPVNYDVFRYVITHLNRVSQQHKINLMTADNLSICFWPTLMRPDFENREFLSTTKIHQSVVETFIQQCQFFFYNGEIVE	soluble
KRLILLDYDGTLVPFQKRPEDASPTPQLLDTLQKLTADPLNHVVINSGRDHFTLEKWLGALPISFAAEHGAFYKENGVWHKNVHAQEWSPGLLSILKLFVSKTPRSHLEVKETALAWHYRETDAWLGRLRAQQLVNSLISICLKQNLQIMQGNKVIEIKSPEFTKGSEVNRLLLATRYDFILAMGDDTTDDDMFKALPVTAVTVKIGTASESARYNLPVQTDTLPFLQRLTDKSVVKAALKSGLKGQLSSAIDFLKRIINH	not soluble
KSITIQTPYLIPDQPIYESLTIALAAGVKVNIFIPDRPDHPFVYRATQYYAQEFIDFGANVYRYDGGFLHSKLLIIDDEIVSIGSANMDIRSFELSFEANAFIYSSYFAKKIEKQISIDISKSKLLSKKDFETQ	not soluble
KTFAALGSGVIGSGWIARALAHGLDVVAWDPAPGAEAALRARVANAWPALRKQGLAPGAAQERLRFVASIEECVGDADFIQESAPERLDLKLDLHARISAAARPDVLIGSSTSGLLPSEFYAEASHPERCLVGHPFNPVYLLPLVEVVGGERTAAEAVRAAMRVYESLGMRPLHVRKEVPGFIADRLLEALWREALHLVNDGVATTGEIDDAIRFGAGLRWSFMGTFLTYTLAGGNAGMRHFMAQFGPALQLPWTYLPAPELTEALIDRVVEGTAEQQGARSIAELERYRDDCLLAVLGAIRETKARHGFA	not soluble
